# Laboratory results reported in patent US20240092841A1.
# Legend:
# Assay in all cases: co-IP with agarose-bound AvFc from H460 whole-cell lysate, mass spectrometry
# [1] = target: Insulin-like growth factor 1 receptor (human) (UniProt P08069)
# [2] = target: Laminin subunit beta-1 (human) (UniProt P07942)
# [3] = target: Sortilin-related receptor (human) (UniProt Q92673)
# [4] = target: Cell cycle control protein 50A (human) (UniProt Q9NV96)
# Integrin alpha-3 (human) = Integrin alpha-3 (human) (UniProt P26006)
# Integrin alpha-1 (human) = Integrin alpha-1 (human) (UniProt P56199)
# [5] = target: Laminin subunit gamma-1 (human) (UniProt P11047)
# Integrin alpha-V (human) = Integrin alpha-V (human) (UniProt P06756)
# [6] = target: Disintegrin and metalloproteinase domain-containing protein 9 (human) (UniProt Q13443)
# [7] = target: Metal transporter CNNM4 (human) (UniProt Q6P4Q7)
# [8] = target: Scavenger receptor class A member 5 (human) (UniProt Q6ZMJ2)
# [9] = target: Prolow-density lipoprotein receptor-related protein 1 (human) (UniProt Q07954)
# Fibronectin (human) = Fibronectin (human) (UniProt P02751)
# [10] = target: Cation-dependent mannose-6-phosphate receptor (human) (UniProt P20645)
# [11] = target: Solute carrier family 2, facilitated glucose transporter member 1 (human) (UniProt P11166)
# [12] = target: 4F2 cell-surface antigen heavy chain (human) (UniProt P08195)
# [13] = target: Scavenger receptor class B member 1 (human) (UniProt Q8WTV0)
# [14] = target: Laminin subunit alpha-1 (human) (UniProt P25391)
# [15] = target: ATP-binding cassette sub-family A member 2 (human) (UniProt Q9BZC7)
# Integrin beta-5 (human) = Integrin beta-5 (human) (UniProt P18084)
# [16] = target: Laminin subunit beta-2 (human) (UniProt P55268)
# [17] = target: Neutral amino acid transporter B (0) (human) (UniProt Q15758)
# [18] = target: Epidermal growth factor receptor (human) (UniProt P00533)
# [19] = target: Attractin (O75882-2) (human) (UniProt O75882)
# Filamin-A (human) = Filamin-A (human) (UniProt P21333)
# [20] = target: CD109 antigen (Q6YHK3-4) (human) (UniProt Q6YHK3)
# [21] = target: Urokinase plasminogen activator surface receptor (human) (UniProt Q03405)
# Chain of UniProt Q15758 (Q15758 whole entry): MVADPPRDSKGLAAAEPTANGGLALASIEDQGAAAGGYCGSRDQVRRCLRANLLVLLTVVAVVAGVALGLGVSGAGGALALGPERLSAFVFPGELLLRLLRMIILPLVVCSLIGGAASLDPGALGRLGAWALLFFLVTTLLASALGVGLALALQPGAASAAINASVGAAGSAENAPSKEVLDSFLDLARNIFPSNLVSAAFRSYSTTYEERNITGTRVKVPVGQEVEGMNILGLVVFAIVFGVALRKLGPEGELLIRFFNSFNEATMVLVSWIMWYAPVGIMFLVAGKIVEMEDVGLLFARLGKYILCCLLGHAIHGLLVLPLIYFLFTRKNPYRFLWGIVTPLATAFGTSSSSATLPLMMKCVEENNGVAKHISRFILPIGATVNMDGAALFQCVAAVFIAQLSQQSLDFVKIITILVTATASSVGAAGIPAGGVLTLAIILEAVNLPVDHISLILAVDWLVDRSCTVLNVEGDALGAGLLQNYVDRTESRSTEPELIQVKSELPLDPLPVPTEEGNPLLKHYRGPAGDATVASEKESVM
# Chain of UniProt P11047 (P11047 34-1609 limits assumed): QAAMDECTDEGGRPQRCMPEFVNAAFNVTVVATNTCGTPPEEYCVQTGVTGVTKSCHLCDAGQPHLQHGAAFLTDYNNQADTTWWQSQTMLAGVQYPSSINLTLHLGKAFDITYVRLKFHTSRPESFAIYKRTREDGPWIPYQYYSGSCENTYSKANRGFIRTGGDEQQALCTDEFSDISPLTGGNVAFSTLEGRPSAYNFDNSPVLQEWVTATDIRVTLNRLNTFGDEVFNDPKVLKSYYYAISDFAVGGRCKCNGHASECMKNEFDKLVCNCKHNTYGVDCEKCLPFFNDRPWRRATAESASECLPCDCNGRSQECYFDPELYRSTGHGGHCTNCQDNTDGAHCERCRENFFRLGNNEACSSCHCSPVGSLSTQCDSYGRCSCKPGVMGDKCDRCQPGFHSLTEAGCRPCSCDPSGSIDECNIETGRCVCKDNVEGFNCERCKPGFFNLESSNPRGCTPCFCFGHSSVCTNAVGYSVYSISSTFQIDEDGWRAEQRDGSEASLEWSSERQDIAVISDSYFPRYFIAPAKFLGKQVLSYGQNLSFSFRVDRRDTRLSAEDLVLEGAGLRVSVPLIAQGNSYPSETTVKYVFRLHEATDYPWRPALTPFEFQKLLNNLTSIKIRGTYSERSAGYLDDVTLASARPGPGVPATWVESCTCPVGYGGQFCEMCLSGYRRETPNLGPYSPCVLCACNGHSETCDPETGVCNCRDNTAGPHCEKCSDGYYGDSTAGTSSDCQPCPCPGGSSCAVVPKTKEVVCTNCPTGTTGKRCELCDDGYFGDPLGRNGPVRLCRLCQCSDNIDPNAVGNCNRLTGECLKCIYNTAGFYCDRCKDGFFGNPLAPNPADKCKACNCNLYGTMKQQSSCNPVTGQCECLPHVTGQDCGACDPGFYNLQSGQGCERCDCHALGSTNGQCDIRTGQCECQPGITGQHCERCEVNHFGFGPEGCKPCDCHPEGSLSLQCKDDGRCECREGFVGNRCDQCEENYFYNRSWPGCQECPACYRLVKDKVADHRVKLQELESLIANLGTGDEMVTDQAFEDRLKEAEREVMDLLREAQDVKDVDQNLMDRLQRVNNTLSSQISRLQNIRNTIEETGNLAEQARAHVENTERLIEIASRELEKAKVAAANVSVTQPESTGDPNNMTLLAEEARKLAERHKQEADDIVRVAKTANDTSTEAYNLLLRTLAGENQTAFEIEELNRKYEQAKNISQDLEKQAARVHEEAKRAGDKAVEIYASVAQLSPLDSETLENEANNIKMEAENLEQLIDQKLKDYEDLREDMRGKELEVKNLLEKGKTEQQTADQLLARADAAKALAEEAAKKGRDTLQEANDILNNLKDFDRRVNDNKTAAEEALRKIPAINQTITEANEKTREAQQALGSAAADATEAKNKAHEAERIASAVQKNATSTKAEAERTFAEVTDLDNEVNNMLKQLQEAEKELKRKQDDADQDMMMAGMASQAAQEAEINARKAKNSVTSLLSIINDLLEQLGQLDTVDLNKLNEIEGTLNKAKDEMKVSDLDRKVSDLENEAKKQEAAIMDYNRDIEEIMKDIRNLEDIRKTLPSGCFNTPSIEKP
# Chain of UniProt P26006 (P26006 33-1051 limits assumed): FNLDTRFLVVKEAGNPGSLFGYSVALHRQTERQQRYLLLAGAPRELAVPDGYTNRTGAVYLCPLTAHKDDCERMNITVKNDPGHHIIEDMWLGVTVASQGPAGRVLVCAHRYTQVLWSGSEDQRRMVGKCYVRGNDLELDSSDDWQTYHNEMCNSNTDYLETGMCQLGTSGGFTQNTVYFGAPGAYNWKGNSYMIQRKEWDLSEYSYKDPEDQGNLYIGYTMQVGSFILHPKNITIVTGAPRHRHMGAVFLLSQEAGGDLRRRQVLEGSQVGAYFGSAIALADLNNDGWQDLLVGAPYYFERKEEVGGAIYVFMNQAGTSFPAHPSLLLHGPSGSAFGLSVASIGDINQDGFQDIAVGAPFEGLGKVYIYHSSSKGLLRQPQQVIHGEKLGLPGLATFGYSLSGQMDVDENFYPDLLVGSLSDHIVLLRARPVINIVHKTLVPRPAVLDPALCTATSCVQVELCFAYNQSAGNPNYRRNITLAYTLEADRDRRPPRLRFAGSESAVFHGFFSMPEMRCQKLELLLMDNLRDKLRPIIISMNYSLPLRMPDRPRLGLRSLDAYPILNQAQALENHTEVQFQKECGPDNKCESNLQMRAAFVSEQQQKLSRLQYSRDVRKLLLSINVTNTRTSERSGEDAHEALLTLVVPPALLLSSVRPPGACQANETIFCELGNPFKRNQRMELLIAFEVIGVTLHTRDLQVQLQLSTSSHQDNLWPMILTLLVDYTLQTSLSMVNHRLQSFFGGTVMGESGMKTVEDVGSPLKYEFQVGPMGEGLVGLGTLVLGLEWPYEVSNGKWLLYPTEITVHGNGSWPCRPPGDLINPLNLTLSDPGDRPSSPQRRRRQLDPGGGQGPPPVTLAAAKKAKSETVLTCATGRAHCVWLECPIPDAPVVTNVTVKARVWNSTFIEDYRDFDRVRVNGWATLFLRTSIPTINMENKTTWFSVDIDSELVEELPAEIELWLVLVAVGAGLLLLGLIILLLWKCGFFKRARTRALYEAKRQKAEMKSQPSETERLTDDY
# Chain of UniProt Q6ZMJ2 (Q6ZMJ2 whole entry): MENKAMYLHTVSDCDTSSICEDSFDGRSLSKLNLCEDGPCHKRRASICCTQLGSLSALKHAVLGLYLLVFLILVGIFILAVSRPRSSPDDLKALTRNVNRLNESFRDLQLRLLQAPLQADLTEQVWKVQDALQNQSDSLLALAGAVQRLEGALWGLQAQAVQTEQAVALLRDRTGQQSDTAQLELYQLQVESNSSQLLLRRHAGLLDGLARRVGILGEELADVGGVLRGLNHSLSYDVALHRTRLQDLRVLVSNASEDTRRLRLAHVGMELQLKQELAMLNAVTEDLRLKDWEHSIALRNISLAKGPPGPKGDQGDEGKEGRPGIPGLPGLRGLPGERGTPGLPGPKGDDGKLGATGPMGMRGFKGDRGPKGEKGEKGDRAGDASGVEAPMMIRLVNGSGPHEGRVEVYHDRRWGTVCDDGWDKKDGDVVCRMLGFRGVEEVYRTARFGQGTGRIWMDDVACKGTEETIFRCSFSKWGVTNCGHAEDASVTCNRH
# Chain of UniProt Q6YHK3 (Q6YHK3 other isoform, or with tags, fused parts or gaps limits assumed): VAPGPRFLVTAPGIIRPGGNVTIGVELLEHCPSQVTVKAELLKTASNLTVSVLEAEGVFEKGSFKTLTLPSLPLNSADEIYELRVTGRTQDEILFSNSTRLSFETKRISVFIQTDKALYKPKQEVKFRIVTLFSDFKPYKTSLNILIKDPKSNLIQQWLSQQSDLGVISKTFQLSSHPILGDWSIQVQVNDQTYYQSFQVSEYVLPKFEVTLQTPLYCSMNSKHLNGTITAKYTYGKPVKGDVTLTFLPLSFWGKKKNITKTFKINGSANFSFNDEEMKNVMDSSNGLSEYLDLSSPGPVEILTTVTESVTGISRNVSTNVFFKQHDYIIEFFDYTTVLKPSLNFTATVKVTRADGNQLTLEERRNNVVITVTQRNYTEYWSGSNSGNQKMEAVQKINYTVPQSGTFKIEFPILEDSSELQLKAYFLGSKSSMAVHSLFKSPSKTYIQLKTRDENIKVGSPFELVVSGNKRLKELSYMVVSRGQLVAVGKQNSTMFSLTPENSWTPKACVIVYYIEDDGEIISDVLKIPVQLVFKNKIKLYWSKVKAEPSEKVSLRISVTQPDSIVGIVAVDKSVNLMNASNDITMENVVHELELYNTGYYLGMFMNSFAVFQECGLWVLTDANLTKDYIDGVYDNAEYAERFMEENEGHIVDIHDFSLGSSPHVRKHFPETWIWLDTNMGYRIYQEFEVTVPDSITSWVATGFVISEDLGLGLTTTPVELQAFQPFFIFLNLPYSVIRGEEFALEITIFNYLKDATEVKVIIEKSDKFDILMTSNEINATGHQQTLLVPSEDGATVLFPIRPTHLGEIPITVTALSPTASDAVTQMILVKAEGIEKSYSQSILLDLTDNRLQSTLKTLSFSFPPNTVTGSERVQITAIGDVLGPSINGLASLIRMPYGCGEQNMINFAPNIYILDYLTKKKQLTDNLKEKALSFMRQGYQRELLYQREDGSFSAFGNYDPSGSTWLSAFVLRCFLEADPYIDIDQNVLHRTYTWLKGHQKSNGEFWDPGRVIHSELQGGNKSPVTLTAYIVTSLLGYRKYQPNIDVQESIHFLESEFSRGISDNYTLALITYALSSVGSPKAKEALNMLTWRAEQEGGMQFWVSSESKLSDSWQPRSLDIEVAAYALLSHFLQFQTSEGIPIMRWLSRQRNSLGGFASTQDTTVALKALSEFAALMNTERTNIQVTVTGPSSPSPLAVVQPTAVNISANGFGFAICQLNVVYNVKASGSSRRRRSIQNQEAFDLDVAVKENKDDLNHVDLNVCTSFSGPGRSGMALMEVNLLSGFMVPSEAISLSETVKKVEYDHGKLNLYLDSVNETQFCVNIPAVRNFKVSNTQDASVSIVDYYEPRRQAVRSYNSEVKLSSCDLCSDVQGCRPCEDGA
substance,measurement,setting,value
Avaren-Fc (AvFc) (Fc fusion),Percentage of Total Spectra (%),[1],0.033%
same,Percentage of Total Spectra (%),[2],0.31%
same,Percentage of Total Spectra (%),[3],0.058%
same,Percentage of Total Spectra (%),[4],0.033%
same,Percentage of Total Spectra (%),Integrin alpha-3 (human),0.025%
same,Percentage of Total Spectra (%),Integrin alpha-1 (human),0.13%
same,Percentage of Total Spectra (%),[5],0.83%
same,Percentage of Total Spectra (%),Integrin alpha-V (human),0.13%
same,Percentage of Total Spectra (%),[6],0.091%
same,Percentage of Total Spectra (%),[7],0.083%
same,Percentage of Total Spectra (%),[8],0.099%
same,Percentage of Total Spectra (%),[9],0.017%
same,Percentage of Total Spectra (%),Fibronectin (human),0.21%
same,Percentage of Total Spectra (%),[10],0.025%
same,Percentage of Total Spectra (%),[11],0.033%
same,Percentage of Total Spectra (%),[12],0.091%
same,Percentage of Total Spectra (%),[13],0.15%
same,Percentage of Total Spectra (%),[14],0.35%
same,Percentage of Total Spectra (%),[15],0.21%
same,Percentage of Total Spectra (%),Integrin beta-5 (human),0.12%
same,Percentage of Total Spectra (%),[16],0.16%
same,Percentage of Total Spectra (%),[17],0.05%
same,Percentage of Total Spectra (%),[18],0.058%
same,Percentage of Total Spectra (%),[19],0.058%
same,Percentage of Total Spectra (%),Filamin-A (human),0.13%
same,Percentage of Total Spectra (%),[20],0.13%
same,Percentage of Total Spectra (%),[21],0.066%
